Source: US9618524B2, “Method, composition, isolation and identification of a plaque particle and related biomarker” (Plaxgen Inc., priority 2012, dated 2017)

Assays:
Assay in all cases: Mass spectroscopy proteomics, semi-quantitative binding affinity of serum proteins (plaqueproteome, Table 2)
Conditions in all cases: higher number = stronger affinity
Tau plaque particles = system: Tau plaque particles; design: species or system human
In short: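 Serum or plasma proteins captured on Thioflavin S-labelled Tau plaque particles (Tau-74, Tau-275 oligomers preformed in PBS at 37° C for 2 h; 1 h co-incubation at 37° C) were isolated by FACS sorting, then tryptically digested and identified by MS/MS (Sequest, human UniProt, strict trypsin).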

[1] = molecular target: T1, alpha-synuclein plaque particles (Homo sapiens, UniProt P37840)
T1 construct: 140 amino acids polypeptide
In short: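 AD-subject plasma or serum (800 μL of 50%) mixed with 30 μg preformed alpha-synuclein aggregates for 1 h at 37 °C; Thioflavin S-positive particles isolated by flow sorting. After reduction, acrylamide alkylation and overnight tryptic digestion, serum proteins identified by MS/MS with Sequest and Scaffold.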

[2] = system: High Density cholesterol (Chl Large) plaque particles; design: species or system human
In short: (§1)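 Serum or plasma from atherosclerotic subjects, as 50% serum, was incubated with 30 μg cholesterol aggregates for 1 h at 37 °C. High- and low-density particles were then flow-sorted, trypsin-digested and analysed by MS/MS. Proteins were identified by Sequest search against human UniProt and validated with Protein Prophet.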

[3] = system: Low density cholesterol (Chl small) plaque particles; design: species or system human
In short: as §1

[4] = molecular target: T2, Abeta-42 plaque particles (Homo sapiens, UniProt P05067)
T2 construct: Abeta 1-42
In short: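 AD patient serum or plasma (50% in PBS) was incubated with Abeta-42 aggregates (30 μg) for 1 h at 37 °C, then stained with Thioflavin S for 30 min. Labeled particles were FACS-sorted, trypsin/Lys-C digested overnight and analyzed by MS/MS. Sequest searched human UniProt; Scaffold/Protein Prophet validated the identifications.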

Molecule	Semi-quantitative analysis of proteins binding to different plaque particles: Tau (Tau plaque particles)	Semi-quantitative analysis of proteins binding to different plaque particles: Synuclein [1]	Semi-quantitative analysis of proteins binding to different plaque particles: Chl Large [2]	Semi-quantitative analysis of proteins binding to different plaque particles: Chl small [3]	Semi-quantitative analysis of proteins binding to different plaque particles: Abeta-42 [4]
Cluster of Ig mu chain C region (protein, UniProt P01871 1-474, looked up) Immunoglobulin heavy constant …: GSASAPTLFPLVSCENSPSDTSSVAVGCLAQDFLPDSITFSWKYKNNSDISSTRGFPSVLRGGKYAATSQVLLPSKDVMQGTDEHVVCKVQHPNGNKEKNVPLPVIAELPPKVSVFVPPRDGFFGNPRKSKLICQATGFSPRQIQVSWLREGKQVGSGVTTDQVQAEAKESGPTTYKVTSTLTIKESDWLGQSMFTCRVDHRGLTFQQNASSMCVPDQDTAIRVFAIPPSFASIFLTKSTKLTCLVTDLTTYDSVTISWTRQNGEAVKTHTNISESHPNATFSAVGEASICEDDWNSGERFTCTVTHTDLPSPLKQTISRPKGVALHRPDVYLLPPAREQLNLRESATITCLVTGFSPADVFVQWMQRGQPLSPEKYVTSAPMPEPQAPGRYFAHSILTVSEEEWNTGETYTCVVAHEALPNRVTERTVDKSTEGEVSADEEGFENLWATASTFIVLFLLSLFYSTTVTLFKVK	11	9	10	10	5
Cluster of Ig alpha-1 chain C region (protein, UniProt P01876 1-398, looked up) Immunoglobulin heavy constant …: ASPTSPKVFPLSLCSTQPDGNVVIACLVQGFFPQEPLSVTWSESGQGVTARNFPPSQDASGDLYTTSSQLTLPATQCLAGKSVTCHVKHYTNPSQDVTVPCPVPSTPPTPSPSTPPTPSPSCCHPRLSLHRPALEDLLLGSEANLTCTLTGLRDASGVTFTWTPSSGKSAVQGPPERDLCGCYSVSSVLPGCAEPWNHGKTFTCTAAYPESKTPLTATLSKSGNTFRPEVHLLPPPSEELALNELVTLTCLARGFSPKDVLVRWLQGSQELPREKYLTWASRQEPSQGTTTFAVTSILRVAAEDWKKGDTFSCMVGHEALPLAFTQKTIDRLADWQMPPPYVVLDLPQETLEEETPGANLWPTTITFLTLFLLSLFYSTALTVTSVRGPSGNREGPQY	12	12	10	9	9
Inter-alpha-trypsin inhibitor heavy chain H2 (protein) SLPGESEEMMEEVDQVTLYSYKVQSTITSRMATTMIQSKVVNNSPQPQNVVFDVQIPKGAFISNFSMTVDGKTFRSSIKEKTVGRALYAQARAKGKTAGLVRSSALDMENFRTEVNVLPGAKVQFELHYQEVKWRKLGSYEHRIYLQPGRLAKHLEVDVWVIEPQGLRFLHVPDTFEGHFDGVPVISKGQQKAHVSFKPTVAQQRICPNCRETAVDGELVVLYDVKREEKAGELEVFNGYFVHFFAPDNLDPIPKNILFVIDVSGSMWGVKMKQTVEAMKTILDDLRAEDHFSVIDFNQNIRTWRNDLISATKTQVADAKRYIEKIQPSGGTNINEALLRAIFILNEANNLGLLDPNSVSLIILVSDGDPTVGELKLSKIQKNVKENIQDNISLFSLGMGFDVDYDFLKRLSNENHGIAQRIYGNQDTSSQLKKFYNQVSTPLLRNVQFNYPHTSVTDVTQNNFHNYFGGSEIVVAGKFDPAKLDQIESVITATSANTQLVLETLAQMDDLQDFLSKDKHADPDFTRKLWAYLTINQLLAERSLAPTAAAKRRITRSILQMSLDHHIVTPLTSLVIENEAGDERMLADAPPQDPSCCSGALYYGSKVVPDSTPSWANPSPTPVISMLAQGSQVLESTPPPHVMRVEND	14	13	10	12	9
Ig alpha-2 chain C region (protein) ASPTSPKVFPLSLDSTPQDGNVVVACLVQGFFPQEPLSVTWSESGQNVTARNFPPSQDASGDLYTTSSQLTLPATQCPDGKSVTCHVKHYTNSSQDVTVPCRVPPPPPCCHPRLSLHRPALEDLLLGSEANLTCTLTGLRDASGATFTWTPSSGKSAVQGPPERDLCGCYSVSSVLPGCAQPWNHGETFTCTAAHPELKTPLTANITKSGNTFRPEVHLLPPPSEELALNELVTLTCLARGFSPKDVLVRWLQGSQELPREKYLTWASRQEPSQGTTTYAVTSILRVAAEDWKKGETFSCMVGHEALPLAFTQKTIDRMAGKPTHINVSVVMAEADGTCY	10	10	9	6	7
Ig mu chain C region (protein) GSASAPTLFPLVSCENSPSDTSSVAVGCLAQDFLPDSITFSWKYKNNSDISSTRGFPSVLRGGKYAATSQVLLPSKDVMQGTDEHVVCKVQHPNGNKEKNVPLPVIAELPPKVSVFVPPRDGFFGNPRKSKLICQATGFSPRQIQVSWLREGKQVGSGVTTDQVQAEAKESGPTTYKVTSTLTIKESDWLGQSMFTCRVDHRGLTFQQNASSMCVPDQDTAIRVFAIPPSFASIFLTKSTKLTCLVTDLTTYDSVTISWTRQNGEAVKTHTNISESHPNATFSAVGEASICEDDWNSGERFTCTVTHTDLPSPLKQTISRPKGVALHRPDVYLLPPAREQLNLRESATITCLVTGFSPADVFVQWMQRGQPLSPEKYVTSAPMPEPQAPGRYFAHSILTVSEEEWNTGETYTCVVAHEALPNRVTERTVDKSTGKPTLYNVSLVMSDTAGTCY	10	8	10	10	5
Vitamin D-binding protein (protein) LERGRDYEKNKVCKEFSHLGKEDFTSLSLVLYSRKFPSGTFEQVSQLVKEVVSLTEACCAEGADPDCYDTRTSALSAKSCESNSPFPVHPGTAECCTKEGLERKLCMAALKHQPQEFPTYVEPTNDEICEAFRKDPKEYANQFMWEYSTNYGQAPLSLLVSYTKSYLSMVGSCCTSASPTVCFLKERLQLKHLSLLTTLSNRVCSQYAAYGEKKSRLSNLIKLAQKVPTADLEDVLPLAEDITNILSKCCESASEDCMAKELPEHTVKLCDNLSTKNSKFEDCCQEKTAMDVFVCTYFMPAAQLPELPDVELPTNKDVCDPGNTKVMDKYTFELSRRTHLPEVFLSKVLEPTLKSLGECCDVEDSTTCFNAKGPLLKKELSSFIDKGQELCADYSENTFTEYKKKLAERLKAKLPDATPTELAKLVNKHSDFASNCCSINSPPLYCDSEIDAELKNIL	19	17	21	18	12
Ceruloplasmin (protein) KEKHYYIGIIETTWDYASDHGEKKLISVDTEHSNIYLQNGPDRIGRLYKKALYLQYTDETFRTTIEKPVWLGFLGPIIKAETGDKVYVHLKNLASRPYTFHSHGITYYKEHEGAIYPDNTTDFQRADDKVYPGEQYTYMLLATEEQSPGEGDGNCVTRIYHSHIDAPKDIASGLIGPLIICKKDSLDKEKEKHIDREFVVMFSVVDENFSWYLEDNIKTYCSEPEKVDKDNEDFQESNRMYSVNGYTFGSLPGLSMCAEDRVKWYLFGMGNEVDVHAAFFHGQALTNKNYRIDTINLFPATLFDAYMVAQNPGEWMLSCQNLNHLKAGLQAFFQVQECNKSSSKDNIRGKHVRHYYIAAEEIIWNYAPSGIDIFTKENLTAPGSDSAVFFEQGTTRIGGSYKKLVYREYTDASFTNRKERGPEEEHLGILGPVIWAEVGDTIRVTFHNKGAYPLSIEPIGVRFNKNNEGTYYSPNYNPQSRSVPPSASHVAPTETFTYEWTVPKEVGPTNADPVCLAKMYYSAVEPTKDIFTGLIGPMKICKKGSLHANGRQKDVDKEFYLFPTVFDENESLLLEDNIRMFTTAPDQVDKEDEDFQESNKMHSMNGFMYGNQPGLTMCKGDSVVWYLFSAGNEADVHGIYFSGNTYLWRGERRDTANLFPQTSLTLHMWPDTEGTFNVECLTTDHYTGGMKQKYTVNQCRRQSEDSTFYLGERTYYIAAVEVEWDYSPQREWEKELHHLQEQNVSNAFLDKGEFYIGSKYKKVVYRQYTDSTFRVPVERKAEEEHLGILGPQLHADVGDKVKIIFKNMATRPYSIHAHGVQTESSTVTPTLPGETLTYVWKIPERSGAGTEDSACIPWAYYSTVDQVKDLYSGLIGPLIVCRRPYLKVFNPRRKLEFALLFLVFDENESWYLDDNIKTYSDHPEKVNKDDEEFIESNKMHAINGRMFGNLQGLTMHVGDEVNWYLMGMGNEIDLHTVHFHGHSFQYKHRGVYSSDVFDIFPGTYQTLEMFPRTPGIWLLHCHVTDHIHAGMETTYTVLQNEDTKSG	20	21	20	22	9
